# Reference: paper PMC8778164, “Towards Complete Tumor Resection: Novel Dual-Modality Probes for Improved Image-Guided Surgery of GRPR-Expressing Prostate Cancer” (Pharmaceutics, 2022)
# Read-outs that look alike come from different tables or passages of the source.
# Tests used:
# [1] = tested on: PC-3-xenograft Balb/c nu/nu mice; assay: Ex vivo optical (fluorescence, IVIS) imaging of organs; format: in vivo, mouse; details: ex vivo after dissection, ex/em 640/680 nm
# Method: (§1) Seven-week-old male Balb/c nu/nu-specific and opportunistic pathogen-free (SOPF) mice (Janvier Labs, Le Genest-Saint-Isle, France) were housed in individually ventilated cages, with 4 mice per cage. Upon arrival, mice were acclimated for 1 week, with access to food and water ad libitum. Mice were subcutaneously inoculated on the right shoulder with PC-3 cells (5 × 10^6 cells suspended in 100 µL of 1/3 Matrigel (Corning Inc., Corning, NY, USA) and 2/3 Hank’s balanced salt solution (Gibco). PC-3 xenografts were allowed to grow for 3 weeks. Tumor sizes were 391 ± 173 mm^3 at the start of the studies. All animal experiments were approved by the Animal Welfare Committee of the Erasmus MC and were conducted in agreement with institutional guidelines (license number: AVD101002017867, 28 September 2017).
# (§2) Before gamma counter measurements, the tumor half, pancreas, kidneys, lungs, small intestine, large intestine, liver, muscle, and bone were placed in two petri dishes and ex vivo optical imaging was performed with the IVIS Spectrum system (Perkin Elmer, Waltham, MA, USA) using the following settings for all measurements: FOV 12.6 cm, medium binning, f2, 0.5 s exposure with an excitation/emission filter of 640 nm/680 nm. Living Image version 4.5.2 software (Perkin Elmer) was used to perform data analysis by drawing a region of interest around the organ/tissue to quantify the radiant efficiency {(photons/second/cm^2/steradian)/(μW/cm^2)}.
# [2] = as above; format: in vivo, mouse; details: male, Balb/c nu/nu, mouse, iv, ex vivo radiant efficiency
# Method: as §1, §2
# [3] = Ex vivo biodistribution after SPECT/CT scanning; format: in vivo, mouse; details: mouse, iv, ~3 h p.i.; for tissue to tissue ratio: male, Balb/c nu/nu, total radioactivity, radioactivity; for tissue uptake at 3 h: PC-3 xenograft mice, i.v.
# Method: as §1
# To determine the biodistribution of the compounds after imaging (~3 h p.i.), blood was collected via cardiac puncture under isoflurane/O2 anesthesia, after which the mice were sacrificed. The tumor and organs of interest (prostate, pancreas, spleen, liver, GI tract (stomach, small intestine, cecum, large intestine), kidneys, lungs, heart, muscle, bone, and brain) were excised, washed in PBS and blotted dry. The stomach, intestines and cecum were emptied of their contents. The tumor was cut in half; one half was fresh-frozen for further analysis and the other half was collected for ex vivo optical imaging and radioactivity measurements. After imaging, the blood, tumor, and relevant organs were weighed and measured in a γ-counter. To determine the total injected radioactivity per animal, samples of the injected solutions were measured as well. The percentage of injected dose per gram (%ID/g) was determined for each tissue sample and corrected for both the injected volume and %ID present at the injection site (the tail). Because the low weight of the prostate limited accurate organ weight measurements, the average prostate weight of all animals was used.
# [4] = Distribution coefficient (LogD7.4), shake-flask method; format: physicochemical; details: n-octanol/PBS pH 7.4, n = 3; read-out: Log D7.4
# Method: Distribution coefficients (LogD7.4) for the ^111In-labeled compounds were determined by a shake-flask method. The experiments were performed in triplicate for each radioligand. A sample containing the radioligand (0.5–2.0 MBq) was dissolved in 1 mL solution of phosphate-buffered saline (0.01 M, pH 7.4) and n-octanol (v:v = 1:1). The vials were vortexed vigorously and then centrifuged at 10,000 rpm for 3 min, for phase separation. Samples (10 μL) of each phase were taken out and analyzed using a gamma counter. LogD7.4 values were calculated, using the following equation: LogD7.4 = log {(counts in n-octanol phase)/(counts in PBS phase)}.
# [5] = blocked with 150 nmol unlabeled NeoB, n = 1
# [6] = non-blocked, n = 3, listed as [111In]In‐15
compound,measurement,setting,value
"CC(C)CC(CC(C)C)NC(=O)[C@H](Cc1c[nH]cn1)NC(=O)CNC(=O)[C@@H](NC(=O)[C@H](C)NC(=O)[C@H](Cc1c[nH]c2ccccc12)NC(=O)[C@H](CCC(N)=O)NC(=O)[C@@H](Cc1ccccc1)NC(=O)CCOCCOCCOCCOCCNC(=O)[C@H](CCCCNC(=O)OC1CCCC2C=NN=C(c3ccc(CNC(=O)CCCCC[N+]4=C(/C=C/C=C/C=C5N(C)c6ccc(S(=O)(=O)O)cc6C5(C)C)C(C)(C)c5cc(S(=O)(=O)[O-])ccc54)cc3)C2CC1)NC(=O)CN1CCN(CC(=O)O)CCN(CC(=O)O)CCN(CC(=O)O)CC1)C(C)C (some centres unmarked) [[^111In]In-15, metal not drawn]","Fluorescent signal, bone (average radiant efficiency)",[1]; [5],0.55 × 10^8 p/sec/cm^2/sr per µW/cm
same,"Fluorescent signal, kidneys (average radiant efficiency)",[1]; [5],6.09 × 10^8 p/sec/cm^2/sr per µW/cm
same,"Fluorescent signal, large intestine (average radiant efficiency)",[1]; [5],0.49 × 10^8 p/sec/cm^2/sr per µW/cm
same,"Fluorescent signal, liver (average radiant efficiency)",[1]; [5],1.75 × 10^8 p/sec/cm^2/sr per µW/cm
same,"Fluorescent signal, lungs (average radiant efficiency)",[1]; [5],2.93 × 10^8 p/sec/cm^2/sr per µW/cm
same,"Fluorescent signal, muscle (average radiant efficiency)",[1]; [5],0.96 × 10^8 p/sec/cm^2/sr per µW/cm
same,"Fluorescent signal, pancreas (average radiant efficiency)",[1]; [5],1.17 × 10^8 p/sec/cm^2/sr per µW/cm
same,"Fluorescent signal, small intestine (average radiant efficiency)",[1]; [5],0.38 × 10^8 p/sec/cm^2/sr per µW/cm
same,"Fluorescent signal, tumor (average radiant efficiency)",[1]; [5],1.47 × 10^8 p/sec/cm^2/sr per µW/cm
same,"Fluorescent signal, bone (average radiant efficiency)","[1]; non-blocked, n = 3",0.74 ± 0.24 × 10^8 p/sec/cm^2/sr per µW/cm
same,"Fluorescent signal, kidneys (average radiant efficiency)","[1]; non-blocked, n = 3",7.80 ± 0.92 × 10^8 p/sec/cm^2/sr per µW/cm^2
same,"Fluorescent signal, large intestine (average radiant efficiency)","[1]; non-blocked, n = 3",0.94 ± 0.28 × 10^8 p/sec/cm^2/sr per µW/cm
same,"Fluorescent signal, liver (average radiant efficiency)","[1]; non-blocked, n = 3",2.38 ± 0.21 × 10^8 p/sec/cm^2/sr per µW/cm
same,"Fluorescent signal, lungs (average radiant efficiency)","[1]; non-blocked, n = 3",2.25 ± 0.70 × 10^8 p/sec/cm^2/sr per µW/cm
same,"Fluorescent signal, muscle (average radiant efficiency)","[1]; non-blocked, n = 3",1.08 ± 0.16 × 10^8 p/sec/cm^2/sr per µW/cm
same,"Fluorescent signal, pancreas (average radiant efficiency)","[1]; non-blocked, n = 3",5.12 ± 1.93 × 10^8 p/sec/cm^2/sr per µW/cm^2
same,"Fluorescent signal, small intestine (average radiant efficiency)","[1]; non-blocked, n = 3",0.85 ± 0.04 × 10^8 p/sec/cm^2/sr per µW/cm
same,"Fluorescent signal, tumor (average radiant efficiency)","[1]; non-blocked, n = 3",4.66 ± 1.35 × 10^8 p/sec/cm^2/sr per µW/cm^2
same,"Fluorescent signal, kidneys (average radiant efficiency)",[1]; [6],7.80 ± 0.92 × 10^8 p/sec/cm^2/sr per µW/cm
same,"Fluorescent signal, pancreas (average radiant efficiency)",[1]; [6],5.12 ± 1.93 × 10^8 p/sec/cm^2/sr per µW/cm
same,"Fluorescent signal, tumor (average radiant efficiency)",[1]; [6],4.66 ± 1.35 × 10^8 p/sec/cm^2/sr per µW/cm
same,tissue to tissue ratio,"[2]; tumor and kidney, blocked with 150 nmol unlabeled NeoB, n = 1, read-out: Tumor-to-kidney ratio (fluorescence)",0.24
same,tissue to tissue ratio,"[2]; tumor and kidney, non-blocked, n = 3, read-out: Tumor-to-kidney ratio (fluorescence)",0.59 ± 0.14
same,tissue to tissue ratio,"[2]; tumor and liver, blocked with 150 nmol unlabeled NeoB, n = 1, read-out: Tumor-to-liver ratio (fluorescence)",0.84
same,tissue to tissue ratio,"[2]; tumor and liver, non-blocked, n = 3, read-out: Tumor-to-liver ratio (fluorescence)",1.96 ± 0.57
same,tissue to tissue ratio,"[2]; tumor and muscle, blocked with 150 nmol unlabeled NeoB, n = 1, read-out: Tumor-to-muscle ratio (fluorescence)",1.54
same,tissue to tissue ratio,"[2]; tumor and muscle, non-blocked, n = 3, read-out: Tumor-to-muscle ratio (fluorescence)",4.5 ± 1.87
same,tissue to tissue ratio,"[2]; tumor and pancreas, blocked with 150 nmol unlabeled NeoB, n = 1, read-out: Tumor-to-pancreas ratio (fluorescence)",1.25
same,tissue to tissue ratio,"[2]; tumor and pancreas, non-blocked, n = 3, read-out: Tumor-to-pancreas ratio (fluorescence)",0.95 ± 0.18
same,tissue to tissue ratio,"[3]; tumor and blood, non-blocked, n = 3, read-out: Tumor-to-blood ratio",0.38 ± 0.04
same,tissue to tissue ratio,"[3]; tumor and kidney, blocked with 150 nmol unlabeled NeoB, n = 1, read-out: Tumor-to-kidney ratio",0.24
same,tissue to tissue ratio,"[3]; tumor and kidney, non-blocked, n = 3, read-out: Tumor-to-kidney ratio",0.45 ± 0.04
same,tissue to tissue ratio,"[3]; tumor and liver, blocked with 150 nmol unlabeled NeoB, n = 1, read-out: Tumor-to-liver ratio",0.49
same,tissue to tissue ratio,"[3]; tumor and liver, non-blocked, n = 3, read-out: Tumor-to-liver ratio",0.78 ± 0.04
same,tissue to tissue ratio,"[3]; tumor and muscle, blocked with 150 nmol unlabeled NeoB, n = 1, read-out: Tumor-to-muscle ratio",3.42
same,tissue to tissue ratio,"[3]; tumor and muscle, non-blocked, n = 3, read-out: Tumor-to-muscle ratio",6.27 ± 0.44
same,tissue to tissue ratio,"[3]; tumor and pancreas, blocked with 150 nmol unlabeled NeoB, n = 1, read-out: Tumor-to-pancreas ratio",2.95
same,tissue to tissue ratio,"[3]; tumor and pancreas, non-blocked, n = 3, read-out: Tumor-to-pancreas ratio",0.72 ± 0.08
same,tissue uptake at 3 h,"[3]; blood, blocked with 150 nmol unlabeled NeoB, n = 1, read-out: Blood uptake",13.9 %ID/g
same,tissue uptake at 3 h,"[3]; blood, non-blocked, n = 3, read-out: Blood uptake",18.3 ± 2.12 %ID/g
same,tissue uptake at 3 h,"[3]; bone, blocked with 150 nmol unlabeled NeoB, n = 1, read-out: Bone uptake",2.82 %ID/g
same,tissue uptake at 3 h,"[3]; bone, non-blocked, n = 3, read-out: Bone uptake",3.05 ± 0.74 %ID/g
same,tissue uptake at 3 h,"[3]; brain, blocked with 150 nmol unlabeled NeoB, n = 1, read-out: Brain uptake",0.51 %ID/g
same,tissue uptake at 3 h,"[3]; brain, non-blocked, n = 3, read-out: Brain uptake",0.67 ± 0.28 %ID/g
same,tissue uptake at 3 h,"[3]; cecum, blocked with 150 nmol unlabeled NeoB, n = 1, read-out: Cecum uptake",2.31 %ID/g
same,tissue uptake at 3 h,"[3]; cecum, non-blocked, n = 3, read-out: Cecum uptake",5.21 ± 1.94 %ID/g
same,tissue uptake at 3 h,"[3]; heart, blocked with 150 nmol unlabeled NeoB, n = 1, read-out: Heart uptake",3.27 %ID/g
same,tissue uptake at 3 h,"[3]; heart, non-blocked, n = 3, read-out: Heart uptake",5.43 ± 0.69 %ID/g
same,tissue uptake at 3 h,"[3]; kidneys, blocked with 150 nmol unlabeled NeoB, n = 1, read-out: Kidneys uptake",18.2 %ID/g
same,tissue uptake at 3 h,"[3]; kidneys, non-blocked, n = 3, read-out: Kidneys uptake",15.4 ± 0.5 %ID/g
same,tissue uptake at 3 h,"[3]; large intestine, blocked with 150 nmol unlabeled NeoB, n = 1, read-out: Large intestine uptake",2.35 %ID/g
same,tissue uptake at 3 h,"[3]; large intestine, non-blocked, n = 3, read-out: Large intestine uptake",5.6 ± 1.44 %ID/g
same,tissue uptake at 3 h,"[3]; liver, blocked with 150 nmol unlabeled NeoB, n = 1, read-out: Liver uptake",8.93 %ID/g
same,tissue uptake at 3 h,"[3]; liver, non-blocked, n = 3, read-out: Liver uptake",8.87 ± 0.65 %ID/g
same,tissue uptake at 3 h,"[3]; lungs, blocked with 150 nmol unlabeled NeoB, n = 1, read-out: Lungs uptake",18.9 %ID/g
same,tissue uptake at 3 h,"[3]; lungs, non-blocked, n = 3, read-out: Lungs uptake",6.77 ± 1.73 %ID/g
same,tissue uptake at 3 h,"[3]; muscle, blocked with 150 nmol unlabeled NeoB, n = 1, read-out: Muscle uptake",1.28 %ID/g
same,tissue uptake at 3 h,"[3]; muscle, non-blocked, n = 3, read-out: Muscle uptake",1.1 ± 0.09 %ID/g
same,tissue uptake at 3 h,"[3]; pancreas, blocked with 150 nmol unlabeled NeoB, n = 1, read-out: Pancreas uptake",1.49 %ID/g
same,tissue uptake at 3 h,"[3]; pancreas, non-blocked, n = 3, read-out: Pancreas uptake",9.72 ± 1.63 %ID/g
same,tissue uptake at 3 h,"[3]; prostate, blocked with 150 nmol unlabeled NeoB, n = 1, read-out: Prostate uptake",1.42 %ID/g
same,tissue uptake at 3 h,"[3]; prostate, non-blocked, n = 3, read-out: Prostate uptake",3.27 ± 0.74 %ID/g
same,tissue uptake at 3 h,"[3]; small intestine, blocked with 150 nmol unlabeled NeoB, n = 1, read-out: Small intestine uptake",1.97 %ID/g
same,tissue uptake at 3 h,"[3]; small intestine, non-blocked, n = 3, read-out: Small intestine uptake",3.79 ± 0.69 %ID/g
same,tissue uptake at 3 h,"[3]; spleen, blocked with 150 nmol unlabeled NeoB, n = 1, read-out: Spleen uptake",5.05 %ID/g
same,tissue uptake at 3 h,"[3]; spleen, non-blocked, n = 3, read-out: Spleen uptake",5.86 ± 1.7 %ID/g
same,tissue uptake at 3 h,"[3]; stomach, blocked with 150 nmol unlabeled NeoB, n = 1, read-out: Stomach uptake",3.48 %ID/g
same,tissue uptake at 3 h,"[3]; stomach, non-blocked, n = 3, read-out: Stomach uptake",4.4 ± 1.04 %ID/g
same,tissue uptake at 3 h,"[3]; tumor, blocked with 150 nmol unlabeled NeoB, n = 1, read-out: Tumor uptake",4.39 %ID/g
same,tissue uptake at 3 h,"[3]; tumor, non-blocked, n = 3, read-out: Tumor uptake",6.9 ± 0.81 %ID/g
same,logD,[4],-1.75 ± 0.09
